# Data published in PMC8362844 (Molecular pharmaceutics, 2020).
# B1: recombinant human alpha-N-acetylglucosamine-6-sulfatase with C-terminal c-myc tag (enzyme, UniProt P15586-1 37-552, looked up)
# chain: VFGVAAGTRRPNVVLLLTDDQDEVLGGMTPLKKTKALIGEMGMTFSSAYVPSALCCPSRASILTGKYPHNHHVVNNTLEGNCSSKSWQKIQEPNTFPAILRSMCGYQTFFAGKYLNEYGAPDAGGLEHVPLGWSYWYALEKNSKYYNYTLSINGKARKHGENYSVDYLTDVLANVSLDFLDYKSNFEPFFMMIATPAPHSPWTAAPQYQKAFQNVFAPRNKNFNIHGTNKHWLIRQAKTPMTNSSIQFLDNAFRKRWQTLLSVDDLVEKLVKRLEFTGELNNTYIFYTSDNGYHTGQFSLPIDKRQLYEFDIKVPLLVRGPGIKPNQTSKMLVANIDLGPTILDIAGYDLNKTQMDGMSLLPILRGASNLTWRSDVLVEYQGEGRNVTDPTCPSLSPGVSQCFPDCVCEDAYNNTYACVRTMSALWNLQYCEFDDQEVFVEVYNLTADPDQITNIAKTIDPELLGKMNYRLMMLQSCSGPTCRTPGVFDPGYRFDPRLMFSNRGSVRTRRFSKHLL
# modifications: N-glycosylated with high-mannose residues; mannose-6 phosphorylated at approximately 0.87% (W/W)
# Target: the molecule itself
# Assay: native gel or EMSA
protein,measurement,value
B1,stoichiometry N,2
